Assay results from US10793871B2, “Nucleic acid molecule encoding glei protein variant with increased phytic acid sensitivity and use thereof” (University-Industry Foundation, Yonsei University, priority 2015, dated 2020).
One block for each molecule: values may come before it.

What was measured:
[1] = system: LOS4 ATPase; test: Steady-state ATPase assay of LOS4-His; type: biochemical, Arabidopsis thaliana
Experimental: (§1) A steady-state ATPase assay was performed as described by Alcázar-Román et al. (Inositol hexakisphosphate and Gle1 activate the DEAD-box protein Dbp5 for nuclear mRNA export. Nat. Cell Biol. 8: 711-716, 2006) with slight modifications. The ATPase assay was performed with a LOS4-His protein in a 96-well plate using a buffer containing 20 mM HEPES (pH 7.5), 150 mM NaCl, 3 mM MgCl2, 1 mM DTT, 2 mM ATP, 6 mM phosphoenolpyruvate, 1.2 mM NADH, 1 mg/ml BSA and 2% (v/v) pyruvate kinase/lactate dihydrogenase (Sigma-Aldrich) in a total volume of 100 μl. Polyadenylic acid was added at 50 μg/ml or different concentrations as described above. Absorbance at 340 nm was measured using a VersaMax absorbance microplate reader (Molecular Devices), and the data were analyzed using SoftMax Pro software (Molecular Devices).
(§2) Gle1 and Gle1C (aa residues 244-611) were cloned into a pMAL C2X vector (New England Biolabs) for MBP fusion, LOS4 was cloned into a pET-29a vector for His fusion. MBP-Gle1 and MBP-Gle1C proteins were expressed in a BL21 (DE3) strain, and LOS4-His proteins were expressed in a Rosseta (DE3) strain of Escherichia coli. Cells were grown at 37° C. to an A600 of 0.4, shifted to 16° C., and induced by 0.25 mM IPTG for 16 hours. The MBP- and His-fusion proteins were purified following the manufacturer's introductions using MBP Excellose (Bioprogen) and His60 Ni Superflow™ resin (Clontech), respectively.

[2] = molecular target: T1, Dbp5 ATPase (Saccharomyces cerevisiae, UniProt P20449+Q12315); settings: yeast; InsP6 100 nM added to Gle1 and RNA; cited from earlier work
T1 sequence (P20449 1-482): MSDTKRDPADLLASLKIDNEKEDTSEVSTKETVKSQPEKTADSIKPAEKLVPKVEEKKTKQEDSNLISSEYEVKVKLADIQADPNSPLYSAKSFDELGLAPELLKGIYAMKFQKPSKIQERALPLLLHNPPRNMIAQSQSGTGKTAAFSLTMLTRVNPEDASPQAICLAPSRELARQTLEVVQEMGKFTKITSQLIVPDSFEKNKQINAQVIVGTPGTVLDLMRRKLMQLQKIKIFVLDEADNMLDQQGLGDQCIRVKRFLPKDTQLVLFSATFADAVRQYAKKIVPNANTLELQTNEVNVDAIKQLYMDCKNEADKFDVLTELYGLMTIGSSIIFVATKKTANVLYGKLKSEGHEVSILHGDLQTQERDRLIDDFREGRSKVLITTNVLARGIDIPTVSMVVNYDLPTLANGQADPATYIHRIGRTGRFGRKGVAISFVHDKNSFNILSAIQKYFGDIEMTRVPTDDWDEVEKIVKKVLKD
T1 sequence (Q12315 1-538): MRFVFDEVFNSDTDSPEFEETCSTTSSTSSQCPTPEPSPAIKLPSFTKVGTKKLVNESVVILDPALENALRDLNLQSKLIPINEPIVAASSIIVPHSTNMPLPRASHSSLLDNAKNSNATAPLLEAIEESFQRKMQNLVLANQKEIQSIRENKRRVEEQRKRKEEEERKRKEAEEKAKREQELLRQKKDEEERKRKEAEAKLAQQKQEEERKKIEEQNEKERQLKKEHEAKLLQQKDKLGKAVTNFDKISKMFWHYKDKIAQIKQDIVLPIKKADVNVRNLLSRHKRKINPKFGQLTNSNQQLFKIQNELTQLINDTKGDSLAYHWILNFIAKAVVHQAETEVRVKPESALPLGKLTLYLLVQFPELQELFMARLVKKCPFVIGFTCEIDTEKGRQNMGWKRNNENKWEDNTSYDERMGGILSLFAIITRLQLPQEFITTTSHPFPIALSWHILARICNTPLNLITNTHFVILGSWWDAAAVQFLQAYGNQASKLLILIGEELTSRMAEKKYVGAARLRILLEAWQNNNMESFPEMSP

[3] = molecular target: T2, LOS4 ATPase (Arabidopsis thaliana, UniProt Q0WPZ7); test: Steady-state ATPase assay of LOS4-His; type: biochemical; settings: MBP-Gle1C alone (2 μM), without LOS4
T2 construct: LOS4 was cloned into a pET-29a vector for His fusion; made in house; host or cells: Escherichia coli Rosetta (DE3) for LOS4-His; BL21 (DE3) for MBP-Gle1C
T2 sequence (Q0WPZ7 244-611): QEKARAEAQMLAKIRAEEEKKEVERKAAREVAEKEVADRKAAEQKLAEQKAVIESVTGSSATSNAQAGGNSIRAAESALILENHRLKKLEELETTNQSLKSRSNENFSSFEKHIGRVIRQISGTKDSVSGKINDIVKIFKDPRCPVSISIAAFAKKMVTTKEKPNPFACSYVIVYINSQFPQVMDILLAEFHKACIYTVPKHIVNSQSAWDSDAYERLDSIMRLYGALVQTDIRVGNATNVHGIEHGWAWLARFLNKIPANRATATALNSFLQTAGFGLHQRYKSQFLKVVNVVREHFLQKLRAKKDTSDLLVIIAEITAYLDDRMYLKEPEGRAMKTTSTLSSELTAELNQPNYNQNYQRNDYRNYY
Experimental: as §1, §2

additional increase in LOS4 activity by InsP6 ([1]; InsP6 10 μM added to Gle1 and RNA (FIG. 5B)): 30%
increase of LOS4 ATPase activity ([1]; LOS4-His 1 μM, ATP 2 mM, RNA 50 μg/ml, MBP-Gle1 2 μM plus 10 μM InsP6): > 4 fold
Molecule: O=P(O)(O)O[C@H]1[C@H](OP(=O)(O)O)[C@@H](OP(=O)(O)O)[C@H](OP(=O)(O)O)[C@@H](OP(=O)(O)O)[C@H]1OP(=O)(O)O [InsP6, Myo-inositol-1,2,3,4,5,6-hexakisphosphate, reference compound]
additional increase in Dbp5 ATPase activity [2]: 3- to 4 fold

increase in the overall catalytic rate of LOS4 ([1]; LOS4-His 1 μM with MBP-Gle1C 2 μM vs LOS4-His alone): approximately two-fold
InsP6 concentration at which LOS4-stimulating activity increases above basal ([1]; with RNA, InsP6 0-100 μM): 1 µM
InsP6 concentration giving maximum LOS4-stimulating activity ([1]; with RNA, InsP6 0-100 μM): 10 µM
InsP6 concentrations at which only basal LOS4-stimulating activity is maintained ([1]; with RNA, InsP6 0-100 μM): 1 to 100 nM
B1: MBP-Gle1C: MBP fusion protein of the carboxyl-terminal domain of Gle1 (amino acid residues 244-611), wild type (protein)
chain: T2 sequence (Q0WPZ7 244-611)
intrinsic ATPase activity [3]: did not show intrinsic ATPase activity
LOS4-His ATPase activity on addition of increasing amounts of protein ([1]; 0-4 μM MBP-Gle1C, 1 μM LOS4-His, 2 mM ATP, RNA (FIG. 4C)): activated LOS4-His ATPase activity in a concentration-dependent manner
stimulation of LOS4 ATPase activity in the absence of InsP6 ([1]; 1 μM LOS4-His, 2 mM ATP, RNA, 2 μM MBP-Gle1C or variant, no InsP6): activated LOS4 ATPase activity to similar degrees
apparent kcat of LOS4-His ([1]; LOS4-His (1 μM) with MBP-Gle1C (2 μM), 0-2 mM ATP): 0.565 s⁻¹
maximal increase in LOS4 ATPase activity with RNA ([1]; LOS4-His:MBP-Gle1C 1:2, addition of RNA (polyadenylic acid) at different concentrations): ~3 fold
